# According to paper doi:10.1101/2021.10.29.466147 (bioRxiv, 2021):
# T1: Smc4 V721C, R1417C (SMC-kleisin ring circularization in vitro) (S. cerevisiae, UniProt Q12267 1-1418, V721C | R1417C)
# T1 sequence: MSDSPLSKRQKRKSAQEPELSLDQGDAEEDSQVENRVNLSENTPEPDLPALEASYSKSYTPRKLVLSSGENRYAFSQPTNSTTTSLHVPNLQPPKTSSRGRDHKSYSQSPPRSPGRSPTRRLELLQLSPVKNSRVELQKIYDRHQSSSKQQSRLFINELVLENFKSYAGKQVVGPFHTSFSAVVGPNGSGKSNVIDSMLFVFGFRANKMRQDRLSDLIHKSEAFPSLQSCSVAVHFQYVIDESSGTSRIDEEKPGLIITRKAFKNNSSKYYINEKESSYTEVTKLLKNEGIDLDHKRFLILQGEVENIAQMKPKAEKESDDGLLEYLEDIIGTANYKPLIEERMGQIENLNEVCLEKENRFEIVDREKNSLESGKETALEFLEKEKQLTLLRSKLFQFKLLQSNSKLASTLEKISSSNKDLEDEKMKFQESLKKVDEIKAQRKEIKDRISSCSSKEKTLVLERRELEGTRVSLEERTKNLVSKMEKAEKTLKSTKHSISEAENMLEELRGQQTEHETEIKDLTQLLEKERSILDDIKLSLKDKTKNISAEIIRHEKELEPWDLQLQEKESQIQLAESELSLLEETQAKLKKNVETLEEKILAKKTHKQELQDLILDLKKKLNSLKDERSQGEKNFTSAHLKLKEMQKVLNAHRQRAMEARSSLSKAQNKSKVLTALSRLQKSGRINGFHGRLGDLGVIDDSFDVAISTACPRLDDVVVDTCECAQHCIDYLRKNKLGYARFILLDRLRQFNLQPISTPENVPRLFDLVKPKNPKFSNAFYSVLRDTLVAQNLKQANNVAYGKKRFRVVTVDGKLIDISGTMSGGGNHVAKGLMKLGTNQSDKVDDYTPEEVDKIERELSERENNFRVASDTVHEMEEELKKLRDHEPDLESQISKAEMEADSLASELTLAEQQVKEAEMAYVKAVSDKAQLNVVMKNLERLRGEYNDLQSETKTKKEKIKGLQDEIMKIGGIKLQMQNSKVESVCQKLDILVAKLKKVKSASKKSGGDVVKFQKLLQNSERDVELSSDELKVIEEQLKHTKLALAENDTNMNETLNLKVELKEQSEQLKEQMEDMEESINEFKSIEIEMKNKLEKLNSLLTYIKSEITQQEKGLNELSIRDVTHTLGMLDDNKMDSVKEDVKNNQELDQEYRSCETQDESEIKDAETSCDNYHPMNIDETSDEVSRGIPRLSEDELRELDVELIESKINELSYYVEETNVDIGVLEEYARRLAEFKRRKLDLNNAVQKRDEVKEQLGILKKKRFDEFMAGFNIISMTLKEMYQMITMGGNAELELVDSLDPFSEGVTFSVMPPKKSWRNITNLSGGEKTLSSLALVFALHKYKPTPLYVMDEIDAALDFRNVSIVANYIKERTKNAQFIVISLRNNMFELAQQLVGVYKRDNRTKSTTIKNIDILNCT
# T2: Ycs4, HEAT-repeat subunit I of S. cerevisiae condensin (S. cerevisiae, UniProt Q06156 1-1176)
# T2 sequence: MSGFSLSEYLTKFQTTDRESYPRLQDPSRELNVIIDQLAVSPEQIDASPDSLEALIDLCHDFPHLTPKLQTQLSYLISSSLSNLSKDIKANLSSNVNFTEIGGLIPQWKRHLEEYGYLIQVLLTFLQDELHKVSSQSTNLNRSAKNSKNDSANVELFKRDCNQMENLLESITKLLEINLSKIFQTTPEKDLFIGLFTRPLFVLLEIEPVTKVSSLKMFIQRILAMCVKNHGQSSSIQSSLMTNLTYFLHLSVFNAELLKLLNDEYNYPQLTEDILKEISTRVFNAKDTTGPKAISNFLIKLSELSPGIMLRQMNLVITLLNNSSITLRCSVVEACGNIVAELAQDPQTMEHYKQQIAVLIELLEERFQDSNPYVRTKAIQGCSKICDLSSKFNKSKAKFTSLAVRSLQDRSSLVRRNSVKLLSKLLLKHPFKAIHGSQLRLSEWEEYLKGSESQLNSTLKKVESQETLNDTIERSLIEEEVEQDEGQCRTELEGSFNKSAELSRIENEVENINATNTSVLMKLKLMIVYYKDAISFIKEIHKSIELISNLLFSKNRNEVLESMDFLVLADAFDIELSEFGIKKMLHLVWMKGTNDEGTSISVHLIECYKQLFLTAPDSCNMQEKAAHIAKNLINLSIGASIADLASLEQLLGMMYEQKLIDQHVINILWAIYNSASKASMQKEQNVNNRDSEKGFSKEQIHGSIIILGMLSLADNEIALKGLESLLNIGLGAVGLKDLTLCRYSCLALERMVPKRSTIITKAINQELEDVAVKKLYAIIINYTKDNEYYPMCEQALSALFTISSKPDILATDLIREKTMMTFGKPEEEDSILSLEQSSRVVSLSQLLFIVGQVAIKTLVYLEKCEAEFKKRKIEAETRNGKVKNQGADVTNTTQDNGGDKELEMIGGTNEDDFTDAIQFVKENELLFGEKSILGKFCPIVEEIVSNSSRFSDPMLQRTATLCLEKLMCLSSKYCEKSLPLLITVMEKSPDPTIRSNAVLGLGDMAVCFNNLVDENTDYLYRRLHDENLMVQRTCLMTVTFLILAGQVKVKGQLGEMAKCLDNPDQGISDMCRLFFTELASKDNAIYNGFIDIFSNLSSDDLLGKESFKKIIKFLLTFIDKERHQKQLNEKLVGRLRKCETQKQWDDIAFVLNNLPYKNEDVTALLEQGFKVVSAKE
# B1: Smc2 K639C, the Smc2 part of the Smc2–TEV–Brn1 fusion (SMC-kleisin ring circularization in vitro) (natural protein, S. cerevisiae)
# chain: MKVEELIIDGFKSYATRTVITDWDPQFNAITGLNGSGKSNILDAICFVLGIASMSTVRASSLQDLIYKRGQAGVTKASVTIVFDNTDKSNSPIGFTNSPQISVTRQVVLGGTSKYLINGHRAPQQSVLQLFQSVQLNINNPNFLIMQGKITKVLNMKPSEILSLIEEAAGTKMFEDRREKAERTMSKKETKLQENRTLLTEEIEPKLEKLRNEKRMFLEFQSTQTDLEKTERIVVSYEYYNIKHKHTSIRETLENGETRMKMLNEFVKKTSEEIDSLNEDVEEIKLQKEKELHKEGTISKLENKENGLLNEISRLKTSLSIKVENLNDTTEKSKALESEIASSSAKLIEKKSAYANTEKDYKMVQEQLSKQRDLYKRKEELVSTLTTGISSTGAADGGYNAQLAKAKTELNEVSLAIKKSSMKMELLKKELLTIEPKLKEATKDNELNVKHVKQCQETCDKLRARLVEYGFDPSRIKDLKQREDKLKSHYYQTCKNSEYLKRRVTNLEFNYTKPYPNFEASFVHGVVGQLFQIDNDNIRYATALQTCAGGRLFNVVVQDSQTATQLLERGRLRKRVTIIPLDKIYTRPISSQVLDLAKKIAPGKVELAINLIRFDESITKAMEFIFGNSLICEDPETACKITFHPKIRARSITLQGDVYDPEGTLSGGSRNTSESLLVDIQKYNQIQKQIETIQADLNHVTEELQTQYATSQKTKTIQSDLNLSLHKLDLAKRNLDANPSSQIIARNEEILRDIGECENEIKTKQMSLKKCQEEVSTIEKDMKEYDSDKGSKLNELKKELKLLAKELEEQESESERKYDLFQNLELETEQLSSELDSNKTLLHNHLKSIESLKLENSDLEGKIRGVEDDLVTVQTELNEEKKRLMDIDDELNELETLIKKKQDEKKSSELELQKLVHDLNKYKSNTNNMEKIIEDLRQKHEFLEDFDLVRNIVKQNEGIDLDTYRERSKQLNEKFQELRKKVNPNIMNMIENVEKKEAALKTMIKTIEKDKMKIQETISKLNEYKRETLVKTWEKVTLDFGNIFADLLPNSFAKLVPCEGKDVTQGLEVKVKLGNIWKESLIELSGGQRSLIALSLIMALLQFRPAPMYILDEVDAALDLSHTQNIGHLIKTRFKGSQFIVVSLKEGMFANANRVFRTRFQDGTSVVSIM
# B2: Brn1 K709C, the Brn1 part of the Smc2–TEV–Brn1 fusion (SMC-kleisin ring circularization in vitro) (natural protein, S. cerevisiae)
# chain: MTTQLRYENNDDDERVEYNLFTNRSTMMANFEEWIKMATDNKINSRNSWNFALIDYFYDLDVLKDGENNINFQKASATLDGCIKIYSSRVDSVTTETGKLLSGLAQRKTNGASNGDDSNGGNGEGLGGDSDEANIEIDPLTGMPISNDPDVNNTRRRVYNRVLETTLVEFETIKMKELDQELIIDPLFKKALVDFDEGGAKSLLLNTLNIDNTARVIFDASIKDTQNVGQGKLQRKEEELIERDSLVDDENEPSQSLISTRNDSTVNDSVISAPSMEDEILSLGMDFIKFDQIAVCEISGSIEQLRNVVEDINQAKDFIENVNNRFDNFLTEEELQAAVPDNAEDDSDGFDMGMQQELCYPDENHDNTSHDEQDDDNVNSTTGSIFEKDLMAYFDENLNRNWRGREHWKVRNFKKANLVNKESDLLEETRTTIGDTTDKNTTDDKSMDTKKKHKQKKVLEIDFFKTDDSFEDKVFASKGRTKIDMPIKNRKNDTHYLLPDDFHFSTDRITRLFIKPGQKMSLFSHRKHTRGDVSSGLFEKSTVSANHSNNDIPTIADEHFWADNYERKEQEEKEKEQSKEVGDVVGGALDNPFEDDMDGVDFNQAFEGTDDNEEASVKLDLQDDEDHKFPIRENKVTYSRVSKKVDVRRLKKNVWRSINNLIQEHDSRKNREQSSNDSETHTEDESTKELKFSDIIQGISKMYSDDTLCDISTSFCFICLLHLANEHGLQITHTENYNDLIVNYEDLATTQAAS
# B3: Smc2 E1113Q (Walker B mutant, EQ) of the S. cerevisiae condensin holo complex (natural protein)
# chain: MKVEELIIDGFKSYATRTVITDWDPQFNAITGLNGSGKSNILDAICFVLGIASMSTVRASSLQDLIYKRGQAGVTKASVTIVFDNTDKSNSPIGFTNSPQISVTRQVVLGGTSKYLINGHRAPQQSVLQLFQSVQLNINNPNFLIMQGKITKVLNMKPSEILSLIEEAAGTKMFEDRREKAERTMSKKETKLQENRTLLTEEIEPKLEKLRNEKRMFLEFQSTQTDLEKTERIVVSYEYYNIKHKHTSIRETLENGETRMKMLNEFVKKTSEEIDSLNEDVEEIKLQKEKELHKEGTISKLENKENGLLNEISRLKTSLSIKVENLNDTTEKSKALESEIASSSAKLIEKKSAYANTEKDYKMVQEQLSKQRDLYKRKEELVSTLTTGISSTGAADGGYNAQLAKAKTELNEVSLAIKKSSMKMELLKKELLTIEPKLKEATKDNELNVKHVKQCQETCDKLRARLVEYGFDPSRIKDLKQREDKLKSHYYQTCKNSEYLKRRVTNLEFNYTKPYPNFEASFVHGVVGQLFQIDNDNIRYATALQTCAGGRLFNVVVQDSQTATQLLERGRLRKRVTIIPLDKIYTRPISSQVLDLAKKIAPGKVELAINLIRFDESITKAMEFIFGNSLICEDPETAKKITFHPKIRARSITLQGDVYDPEGTLSGGSRNTSESLLVDIQKYNQIQKQIETIQADLNHVTEELQTQYATSQKTKTIQSDLNLSLHKLDLAKRNLDANPSSQIIARNEEILRDIGECENEIKTKQMSLKKCQEEVSTIEKDMKEYDSDKGSKLNELKKELKLLAKELEEQESESERKYDLFQNLELETEQLSSELDSNKTLLHNHLKSIESLKLENSDLEGKIRGVEDDLVTVQTELNEEKKRLMDIDDELNELETLIKKKQDEKKSSELELQKLVHDLNKYKSNTNNMEKIIEDLRQKHEFLEDFDLVRNIVKQNEGIDLDTYRERSKQLNEKFQELRKKVNPNIMNMIENVEKKEAALKTMIKTIEKDKMKIQETISKLNEYKRETLVKTWEKVTLDFGNIFADLLPNSFAKLVPCEGKDVTQGLEVKVKLGNIWKESLIELSGGQRSLIALSLIMALLQFRPAPMYILDQVDAALDLSHTQNIGHLIKTRFKGSQFIVVSLKEGMFANANRVFRTRFQDGTSVVSIM
# What was measured:
# [1] = molecular target: T1, Smc4 V721C, R1417C (SMC-kleisin ring …); test: cross-linking
# [2] = molecular target: T2, Ycs4, HEAT-repeat subunit I of S. …; test: cryo-EM structure
Binder,binding result [1],binding result [2]
B1,binds,
B2,binds,
B3,,binds
